Test system: MS2 coat protein
Test: apparent KD of MS2 coat protein; designed switch direction (-1 OFF switch, 1 ON switch): -1; higher = weaker reporter binding
Procedure, shortened: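 Designed RNA switches were transcribed on Illumina chips by stalled E. coli RNA polymerase and titrated with SNAP-549-labelled MS2 coat protein from 0.7 or 1.5 nM, doubling to 3 µM. Step length ran from 0.8–1.5 h at the lowest concentration to 10–20 min at the highest. The apparent KD is the median over clusters for each design, from curve-fitted normalised cluster fluorescence.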

[1] = Eterna round: R95, input ligand: microRNA oligo, concentration not stated
[2] = Eterna round: R95, input ligand: FMN 200 uM
[3] = Eterna round: R95, input ligand: none
[4] = input ligand: microRNA oligo, concentration not stated

Sequence	apparent KD of MS2 coat protein (input ligand: FMN 200 uM)	apparent KD of MS2 coat protein (input ligand: none)	apparent KD of MS2 coat protein [1]	other results
GGCAAACAUGAGGAUCACCCAUGUAAGGAUAUUAGGCGAUCGUCGAAAGACGAUAGCCUGAGAAGGUGCAUGCC [Eli x1 4.15] (Eterna round: R97, puzzle: Exclusion 1)	0.0388 µM	0.0224 µM		
AUGAUGUGAGGAUAUUAGUAGGGUAGCAGAUGACUGCCUAAUAAGAAGGCACAUGAGGAUCACCCAUGUUCACU [Eternabot (L2) Solution 11] (Eterna round: R97, puzzle: Exclusion 4)	0.135 µM	0.0635 µM		
GUGGUACAUGAGGAUCACCCAUGUCAGGAUAUCGCGUGGUUUUUUGCGGCCGCGCGCGCGAGAAGGGACGUCUU (puzzle: Exclusion 1)			0.0291 µM	
UUGCUUUCUUAGUACUCUACAAGUUUUUUGUUCGUUUUAACAUGAGGAUCACCCAUGUCUAGUGGAUCUGAUCGGGU [JL ViennaUCT Isreen mod 6] (puzzle: Sensor v3, turn-off variant 2)			0.263 µM	apparent KD of MS2 coat protein [2]: 0.146 µM; apparent KD of MS2 coat protein [3]: 0.173 µM
GAUCAUGCAGGAUAUACAUGGAACAUGUAAUCAUGAAUUUCACAUGAGGAUCACCCAUGUAGAAGGGCAUGAUC [Omei Ex2 A14] (Eterna round: R97, puzzle: Exclusion 2)	0.151 µM	2.74 µM		
UCUCGACAUGAGGAUCACCCAUGUCAGGAUAUUGUAUUGGAGGUGUUUAACCUUAUGGCAAGAAGGGAUGUGUG [LRO-Excl1-25] (puzzle: Exclusion 1)			0.0229 µM	
GUGUUGCGAGGAUAUAUAAGGGUAUGUUCUUAGGAUAUGGAACAUGAGGAUCACCCAUGUAGAAGGUGCAUAUC [JR_Ex2_Sub047] (Eterna round: R97, puzzle: Exclusion 2)	0.0678 µM	0.0339 µM		
CCUGCACAUGAGGAUCACCCAUGUUAGGAUAUCUCGCCGCCUAAACGAAUGGUGGCCCAGAGAAGGAACAGGGC [Riatbege] (puzzle: Exclusion 1)			0.0265 µM	
AAUAAUUGUGACUUGGGCGACAUGAGGAUCACCCAUGUUACAAGCUUGUUGCUCGUCUUAUAAUUAACCCAUGUCAC [LRO Sensor-off var1-23 mod of Stov1-13-A1 by Brourd] (Eterna round: R97, puzzle: Sensor, turn-off variant 1)	0.0158 µM	0.0184 µM		
CUGAGGUAGCGGUCCUAUGACAUGAGGAUCACCCAUGUACCUUGCUUUGAGCUUAUUGCUCGUCUUAUGAUUCUCGG [Mat - Sensor v3 - turn-off var 1 - JL Mod - D41] (puzzle: Sensor v3, turn-off variant 1)			0.299 µM	apparent KD of MS2 coat protein [2]: 0.399 µM; apparent KD of MS2 coat protein [3]: 0.46 µM
CGAGGUAGAGGAUAUACGUGGAUGUAAAUUCAUGAUAUUCUACAUGAGGAUCACCCAUGUAGAAGGCUAUAGCG [JR_Ex2_Sub077] (Eterna round: R97, puzzle: Exclusion 2)	0.0269 µM	0.018 µM		
AGAUUACAUGAGGAUAUCGUAUUGGAUAUAGUGCGAGAAGGCAUGACAUGAGGAUCACCCAUGUAGUGUUGGGA [JR_Ex6_Sub010] (Eterna round: R97, puzzle: Exclusion 6)	0.117 µM	0.187 µM		
AAGGGUAGGCAGGAUAUCCAGGUCGACACCGCGGGAGAAGGGCUUACAUGAGGAUCACCCAUGUAGGGUGCGAG [EX6 A.2] (Eterna round: R97, puzzle: Exclusion 6)	0.253 µM	0.133 µM		
AGAAAUGCCCAUGGCCGCAAGCUUUUUACUUGUCUUACCACAUGAGGAUCACCCAUGUGACAUGGAAACCUUAUGAU [Sensor v3, turn-off variant 2 (MOD of Oranla v.2)] (puzzle: Sensor v3, turn-off variant 2)			0.097 µM	apparent KD of MS2 coat protein [2]: 0.0303 µM; apparent KD of MS2 coat protein [3]: 0.0281 µM
GCCGUCGUUGUGAGGAUAUGCCUAUGGAUACGUAGGCAGAAGGCACAUGAGGAUCACCCAUGUCCAAAGACGGC [JL-BMX4-4.28 Eli mod] (Eterna round: R97, puzzle: Brourd's mod of Exclusion 4)	1 µM	0.101 µM		
UGUUUGUCAGGAUAUGCUAGUGCUAGUGAAAGCUAGUGCUAGUAGAAGGGACAUGAGGAUCACCCAUGUGAACG [-27.1, -27 kcal, A 26%, 2bis-(ca)2] (Eterna round: R97, puzzle: Exclusion 4)	0.117 µM	0.0541 µM		
AAGAGUGCAGGAUAUACUUGGUAGGGUAAGAUGAGUGAGGGACAUGAGGAUCACCCAUGUAGAAGGGCAGAGAG [JR_Exclu2_Sub057] (puzzle: Exclusion 2)			0.0351 µM	apparent KD of MS2 coat protein [2]: 0.0331 µM; apparent KD of MS2 coat protein [3]: 0.0267 µM
GGUUAUUGCAAGGAUAUGCUUUUUUUUGAUAUUGCAGAAGGUGCAACAUGAGGAUCACCCAUGUUGGAUGGGUU [JR_E6_Sub019] (puzzle: Exclusion 6)			0.0941 µM	

Sequence	apparent KD of MS2 coat protein (input ligand: FMN 200 uM)	apparent KD of MS2 coat protein (input ligand: none)	apparent KD of MS2 coat protein [1]	other results
UAAUUGAUUAAUAGAUUAUACAUGAGGAUCACCCAUGUAGGUCCUACGUGCCAUUUAAGUAGCUCGUCUUAUUCCCA [Sensor-V1 #67] (Eterna round: R97, puzzle: Sensor, turn-off variant 1)	0.0402 µM	0.0456 µM		
UGACUUCAUAUCACAUGAGGAUCACCCAUGUUAUUCAUCGCGUAGGAUAUCGAGGUUUAUUAUUACGAGAAGGACGUAUUGAUA [JR_ExcNG3_Sub074] (Eterna round: R96, puzzle: Exclusion NG 3)	0.0611 µM	0.0407 µM		apparent KD of MS2 coat protein [4]: 0.0345 µM
AGCUAGUGCCGAGGAUAUACAUGAGGAUCACCCAUGUAAGCCAGUCGGUUUCUGACUGGCAAGAUGUAGAAGGCGGCGUUGGCA [JL ENG2 1.50] (Eterna round: R96, puzzle: Exclusion NG 2)	0.0571 µM	0.0135 µM		apparent KD of MS2 coat protein [4]: 0.00957 µM
UCGGCGCGAGGAUAUGCGGUUGCUUGGUAGGGUCGUGGCGUACAUGAGGAUCACCCAUGUAGAAGGCGCGCCGC [Apr-15 SS2-32*] (puzzle: Exclusion 2)			0.0155 µM	
CGCGUAUGAGGAUAUGCAUAAAAGGGUGCACUGAGUCUGUGACAUGAGGAUCACCCAUGUAGAAGGCGUGCGCA [Diquzain] (puzzle: Exclusion 2)			0.0254 µM	
UCAAGUAUGUAGGAUAUCGAUGUCGAAAGACAUCGAGAAGGACGUACAUGAGGAUCACCCAUGUAACUUGCAUG [Exclusion 6 - B - 10:f] (Eterna round: R96, puzzle: Exclusion 6)	0.159 µM	0.22 µM		apparent KD of MS2 coat protein [4]: 0.112 µM
GCAAGCUUUUGCUCGUCUUACAUGAGGAUCACCCAUGUCGGGUGCUUGCUUCGGGCCCGGGCCUCCCGGGCCCGGGC [-43.3, -67 kcal, A 10%] (Eterna round: R97, puzzle: Sensor, turn-off variant 1)	0.0618 µM	0.0663 µM		
GUUCUGACAGGAUAUACAUGAGGAUCACCCAUGUGCCCUUGGAGAUGCAAAGCAUCUCGUAGAAGGGUCUGAAC [Omei Ex3 Model Bachelor's Dilema v29] (Eterna round: R97, puzzle: Exclusion 3)	0.034 µM	0.0372 µM		
CCUCUACAUGAGGAUCACCCAUGUCAGGAUAUCGUGUGUUUUUUUUCGGCCGCGCGUGCGAGAAGGGACGUCUU (puzzle: Exclusion 1)			0.0301 µM	
GUGUGCAGAGGAUAUACAGAGGAAAAGAAAAGAUAAGUGAUACAUGAGGAUCACCCAUGUAGAAGGCUGAGUGU [Excluse me!! 21 - Jieux - Exclusion 2] (puzzle: Exclusion 2)			0.0211 µM	apparent KD of MS2 coat protein [2]: 0.0328 µM; apparent KD of MS2 coat protein [3]: 0.0227 µM
AGCGAAUAGGUAGGAUAUGAGAAUAGAUAGAGCUCAGAAGGACCACAUGAGGAUCACCCAUGUAAAGUCUUGAGGCUGCGUGGU [Prohibition 15 - Jieux - Exclusion NG 1] (Eterna round: R96, puzzle: Exclusion NG 1)	0.051 µM	0.0175 µM		apparent KD of MS2 coat protein [4]: 0.0144 µM
UUAAUUUAAGGGAUAGAUCAUUACAUGAGGAUCACCCAUGUUGAGGAUAUCAGCUCGUUUAGAGCUGAGAAGGCAACAAUAGGG [ExNG3/14-A2] (Eterna round: R96, puzzle: Exclusion NG 3)	0.0589 µM	0.163 µM		apparent KD of MS2 coat protein [4]: 0.06 µM
GCAGCUAAUCGAGGAUAUCAGCACGAUUAGUGCUGAGAAGGCGACAUGAGGAUCACCCAUGUGAUCAAUUAAUAUUAAUGCUGC [ENG1/11-A1] (Eterna round: R96, puzzle: Exclusion NG 1)	0.774 µM	0.505 µM		apparent KD of MS2 coat protein [4]: 0.295 µM
GGUUGGCGAGGAUAUACAUGAGGAUCACCCAUGUGAGAGAUACUAGUGAGGUCGAUUGGUAGAAGGCGCUGACA [Mat - Exclusion 3 - Mod of JL D78] (puzzle: Exclusion 3)			0.114 µM	
GCAUCCAAUGUGAGGAUAUACCUCUGGAUACAUAGGUAGAAGGCACAUGAGGAUCACCCAUGUUCCUAGGAUGC [Fiskers BMX 4 - 31] (puzzle: Brourd's mod of Exclusion 4)			0.0329 µM	
CUUCGACAUGAGGAUCACCCAUGUCAGGAUAUUGUUUAUCUGGUUUUUUACAGAUAUGCAAGAAGGGAUGUGUU [LRO-Excl1-03] (puzzle: Exclusion 1)			0.0265 µM	
UUUAACAAGCCAGAUCCUCACAUGAGGAUCACCCAUGUGCUCGUCUGAUUUUGUACUAUCAUGUGAGUGAUAGUAUU [Level Boss var2-05] (puzzle: Sensor v3, turn-off variant 1)			0.0152 µM	apparent KD of MS2 coat protein [2]: 0.165 µM; apparent KD of MS2 coat protein [3]: 0.181 µM

From the supplement of paper PMC9170038
